Tested on: Escherichia coli TOP10
Assay: shrunken log2 fold change of peptide-encoding DNA abundance (4.5 h post-induction vs induction); higher = less antimicrobial activity (less host growth inhibition)
Conditions: time post-induction: 4.5 h; library: site-saturation at positions 5, 18, 19, 20
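Further: peptides expressed intracellularly from a pBAD plasmid library in pooled LB shake-flask culture, induced with 0.3% L-arabinose, DNA abundance read by NGS, three biological replicates, DESeq2 with apeglm shrinkage.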

| Sequence | shrunken log2 fold change |
| --- | --- |
| RRIRGRPPRLPRPRPRPGSPPRP | 0.469 |
| RRIRKRPPRLPRPRPRPFKAPRP | -0.111 |
| RRIRCRPPRLPRPRPRPRDFPRP | 0.0317 |
| RRIRNRPPRLPRPRPRPCVYPRP | -0.215 |
| RRIRYRPPRLPRPRPRPQFTPRP | -0.308 |
| RRIRTRPPRLPRPRPRPYHIPRP | -1.06 |
| RRIRNRPPRLPRPRPRPYVCPRP | -0.363 |
| RRIRPRPPRLPRPRPRPAGIPRP | -0.0533 |
| RRIRARPPRLPRPRPRPFNNPRP | -0.688 |
| RRIRKRPPRLPRPRPRPIHVPRP | -0.0353 |
| RRIRERPPRLPRPRPRPPAFPRP | 0.331 |
| RRIRVRPPRLPRPRPRPTTYPRP | -0.465 |
| RRIRVRPPRLPRPRPRPNRAPRP | 0.202 |
| RRIRLRPPRLPRPRPRPSWHPRP | 0.25 |
| RRIRNRPPRLPRPRPRPMSCPRP | -0.0294 |
| RRIRPRPPRLPRPRPRPDWIPRP | -0.444 |
| RRIRIRPPRLPRPRPRPVINPRP | -0.198 |
| RRIRRRPPRLPRPRPRPLGLPRP | 0.363 |
| RRIRHRPPRLPRPRPRPMDCPRP | -0.0499 |
| RRIRFRPPRLPRPRPRPGPTPRP | 0.404 |
| RRIRKRPPRLPRPRPRPQHIPRP | -0.243 |
| RRIRERPPRLPRPRPRPSPDPRP | -0.185 |
| RRIRARPPRLPRPRPRPVDQPRP | 0.607 |
| RRIRIRPPRLPRPRPRPDNTPRP | -0.947 |
| RRIRFRPPRLPRPRPRPWTIPRP | -0.238 |

| Sequence | shrunken log2 fold change |
| --- | --- |
| RRIRRRPPRLPRPRPRPTDAPRP | 0.198 |
| RRIRDRPPRLPRPRPRPPQAPRP | 0.268 |
| RRIRTRPPRLPRPRPRPKHRPRP | -0.191 |
| RRIRWRPPRLPRPRPRPPTIPRP | -0.0126 |
| RRIRTRPPRLPRPRPRPSPQPRP | -0.133 |
| RRIRLRPPRLPRPRPRPMGWPRP | 0.203 |
| RRIRQRPPRLPRPRPRPYLQPRP | 0.000139 |
| RRIRMRPPRLPRPRPRPFPLPRP | -0.0414 |
| RRIRYRPPRLPRPRPRPMSWPRP | -0.0422 |
| RRIRMRPPRLPRPRPRPMSRPRP | 0.0997 |
| RRIRERPPRLPRPRPRPEWVPRP | 0.241 |
| RRIRSRPPRLPRPRPRPQTLPRP | -0.119 |
| RRIRWRPPRLPRPRPRPGDIPRP | -0.133 |
| RRIRWRPPRLPRPRPRPANRPRP | 0.0566 |
| RRIRQRPPRLPRPRPRPKGFPRP | -0.219 |
| RRIRMRPPRLPRPRPRPRGKPRP | 0.97 |
| RRIRNRPPRLPRPRPRPLVTPRP | 0.0322 |
| RRIRMRPPRLPRPRPRPDIWPRP | 1.41 |
| RRIRCRPPRLPRPRPRPYVSPRP | -0.207 |
| RRIRTRPPRLPRPRPRPIGYPRP | -0.0183 |
| RRIRQRPPRLPRPRPRPDERPRP | -0.00664 |
| RRIRMRPPRLPRPRPRPPAPPRP | 2.01 |
| RRIRVRPPRLPRPRPRPESKPRP | 0.00683 |
| RRIRPRPPRLPRPRPRPVDKPRP | -0.153 |
| RRIRIRPPRLPRPRPRPTARPRP | 0.0575 |

| Sequence | shrunken log2 fold change |
| --- | --- |
| RRIRVRPPRLPRPRPRPGPWPRP | 0.273 |
| RRIRFRPPRLPRPRPRPKGVPRP | 0.0142 |
| RRIRKRPPRLPRPRPRPDDIPRP | 0.0454 |
| RRIRIRPPRLPRPRPRPRLIPRP | -0.199 |
| RRIRSRPPRLPRPRPRPTESPRP | 0.0325 |
| RRIRGRPPRLPRPRPRPAETPRP | -0.0775 |
| RRIRPRPPRLPRPRPRPLCQPRP | -0.116 |
| RRIRLRPPRLPRPRPRPYSVPRP | 0.0375 |
| RRIRYRPPRLPRPRPRPCFAPRP | -0.521 |
| RRIRDRPPRLPRPRPRPPMVPRP | 0.207 |
| RRIRFRPPRLPRPRPRPCVLPRP | -0.401 |
| RRIRCRPPRLPRPRPRPTYWPRP | -0.113 |
| RRIRWRPPRLPRPRPRPEVSPRP | 0.269 |
| RRIRWRPPRLPRPRPRPIRDPRP | 0.0528 |
| RRIRQRPPRLPRPRPRPYVQPRP | -0.00748 |
| RRIRPRPPRLPRPRPRPKQEPRP | 0.138 |
| RRIRERPPRLPRPRPRPFGWPRP | 0.213 |
| RRIRLRPPRLPRPRPRPDHFPRP | 0.0304 |
| RRIRWRPPRLPRPRPRPTIKPRP | -0.125 |
| RRIRGRPPRLPRPRPRPPVQPRP | 0.496 |
| RRIRTRPPRLPRPRPRPNIEPRP | 0.105 |
| RRIRRRPPRLPRPRPRPYVEPRP | -0.482 |
| RRIRERPPRLPRPRPRPMCLPRP | -0.38 |
| RRIRPRPPRLPRPRPRPGCFPRP | 0.158 |
| RRIRCRPPRLPRPRPRPGYFPRP | -0.394 |

| Sequence | shrunken log2 fold change |
| --- | --- |
| RRIRSRPPRLPRPRPRPSFWPRP | 0.079 |
| RRIRARPPRLPRPRPRPKYPPRP | -0.178 |
| RRIRSRPPRLPRPRPRPINPPRP | -0.447 |
| RRIRHRPPRLPRPRPRPNWLPRP | -0.165 |
| RRIRCRPPRLPRPRPRPDYLPRP | 0.0148 |
| RRIRIRPPRLPRPRPRPTRPPRP | 0.763 |
| RRIRYRPPRLPRPRPRPGYMPRP | -0.716 |
| RRIRYRPPRLPRPRPRPKPLPRP | 0.276 |
| RRIRQRPPRLPRPRPRPSWTPRP | -0.15 |
| RRIRVRPPRLPRPRPRPDRPPRP | -0.109 |
| RRIRHRPPRLPRPRPRPRKNPRP | 0.00268 |
| RRIRFRPPRLPRPRPRPNHTPRP | -0.626 |
| RRIRDRPPRLPRPRPRPMQHPRP | -0.00754 |
| RRIRWRPPRLPRPRPRPVDLPRP | -0.107 |
| RRIRARPPRLPRPRPRPVKRPRP | 0.138 |
| RRIRLRPPRLPRPRPRPHNKPRP | -0.59 |
| RRIRVRPPRLPRPRPRPPPEPRP | 0.755 |
| RRIRQRPPRLPRPRPRPFKPPRP | -0.0337 |
| RRIRFRPPRLPRPRPRPIGGPRP | 0.14 |
| RRIRVRPPRLPRPRPRPNDCPRP | -0.2 |
| RRIRYRPPRLPRPRPRPRHKPRP | -0.208 |
| RRIRWRPPRLPRPRPRPAPHPRP | 0.491 |
| RRIRKRPPRLPRPRPRPAFFPRP | 0.411 |
| RRIRVRPPRLPRPRPRPRYYPRP | -0.0159 |
| RRIRFRPPRLPRPRPRPLTAPRP | -0.0807 |

| Sequence | shrunken log2 fold change |
| --- | --- |
| RRIRDRPPRLPRPRPRPDACPRP | 0.52 |
| RRIRARPPRLPRPRPRPCQPPRP | -0.0379 |
| RRIRIRPPRLPRPRPRPMPWPRP | 0.306 |
| RRIRPRPPRLPRPRPRPWTEPRP | -0.204 |
| RRIRARPPRLPRPRPRPCKQPRP | -0.0572 |
| RRIRARPPRLPRPRPRPINKPRP | -0.311 |
| RRIRPRPPRLPRPRPRPWWPPRP | 0.165 |
| RRIRKRPPRLPRPRPRPHKEPRP | -0.0849 |
| RRIRPRPPRLPRPRPRPHIGPRP | 0.0387 |
| RRIRVRPPRLPRPRPRPADGPRP | 0.000767 |
| RRIRNRPPRLPRPRPRPTHAPRP | 0.337 |
| RRIRKRPPRLPRPRPRPHACPRP | 0.0691 |
| RRIRWRPPRLPRPRPRPQKDPRP | -0.154 |
| RRIRHRPPRLPRPRPRPRMEPRP | -0.0339 |
| RRIRPRPPRLPRPRPRPTAQPRP | 0.357 |
| RRIRFRPPRLPRPRPRPSDEPRP | -0.308 |
| RRIRNRPPRLPRPRPRPRRFPRP | 0.0247 |
| RRIRRRPPRLPRPRPRPKLGPRP | 0.141 |
| RRIRHRPPRLPRPRPRPNMWPRP | -0.799 |
| RRIRLRPPRLPRPRPRPNQCPRP | -0.206 |
| RRIRQRPPRLPRPRPRPKAHPRP | 0.0165 |
| RRIRSRPPRLPRPRPRPRPPPRP | 1.13 |
| RRIRERPPRLPRPRPRPFKTPRP | -0.0273 |
| RRIRARPPRLPRPRPRPKVNPRP | -0.109 |
| RRIRLRPPRLPRPRPRPVMCPRP | 0.142 |

Reference: the supplement of paper PMC9112550, “Optimization of the antimicrobial peptide Bac7 by deep mutational scanning” (BMC Biology, 2022)
